Holding throughout (test): filter binding
The target of series [1] is HsAGO2 (human, UniProt Q9UKV8 1-859).
In series [2] the target is T1, AtAGO10+Hs-loop D795A (Arabidopsis, UniProt Q9XGW1 1-712+Q9UKV8:602-608+721-988, D795A;internal_change).
T1 sequence: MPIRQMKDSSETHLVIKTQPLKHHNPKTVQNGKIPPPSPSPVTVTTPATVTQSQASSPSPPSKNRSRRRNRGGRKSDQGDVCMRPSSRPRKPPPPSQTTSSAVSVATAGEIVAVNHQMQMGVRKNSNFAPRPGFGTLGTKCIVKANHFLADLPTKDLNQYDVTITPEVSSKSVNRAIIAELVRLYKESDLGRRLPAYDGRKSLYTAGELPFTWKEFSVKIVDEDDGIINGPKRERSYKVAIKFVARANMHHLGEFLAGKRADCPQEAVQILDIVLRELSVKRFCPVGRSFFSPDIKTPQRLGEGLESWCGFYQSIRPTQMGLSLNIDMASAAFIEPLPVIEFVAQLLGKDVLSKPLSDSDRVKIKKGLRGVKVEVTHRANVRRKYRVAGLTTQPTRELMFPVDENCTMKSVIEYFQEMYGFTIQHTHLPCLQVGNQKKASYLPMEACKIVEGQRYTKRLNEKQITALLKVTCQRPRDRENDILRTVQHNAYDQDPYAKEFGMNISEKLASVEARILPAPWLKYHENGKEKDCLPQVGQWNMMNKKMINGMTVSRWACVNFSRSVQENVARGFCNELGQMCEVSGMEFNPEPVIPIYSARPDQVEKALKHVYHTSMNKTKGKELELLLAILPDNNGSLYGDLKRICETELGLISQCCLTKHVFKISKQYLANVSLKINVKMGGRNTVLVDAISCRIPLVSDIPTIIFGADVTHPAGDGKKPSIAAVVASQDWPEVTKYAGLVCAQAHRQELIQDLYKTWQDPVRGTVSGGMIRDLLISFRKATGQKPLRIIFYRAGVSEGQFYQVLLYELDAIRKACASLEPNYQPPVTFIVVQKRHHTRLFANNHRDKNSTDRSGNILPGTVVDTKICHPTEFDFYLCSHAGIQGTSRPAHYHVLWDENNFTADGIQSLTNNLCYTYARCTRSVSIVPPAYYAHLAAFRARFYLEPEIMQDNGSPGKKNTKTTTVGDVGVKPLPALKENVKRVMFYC

Series [3] deals with T2, AtAGO10 D795A (wild-type PIWI loop) (Arabidopsis, UniProt Q9XGW1 1-988, D795A).
T2 sequence: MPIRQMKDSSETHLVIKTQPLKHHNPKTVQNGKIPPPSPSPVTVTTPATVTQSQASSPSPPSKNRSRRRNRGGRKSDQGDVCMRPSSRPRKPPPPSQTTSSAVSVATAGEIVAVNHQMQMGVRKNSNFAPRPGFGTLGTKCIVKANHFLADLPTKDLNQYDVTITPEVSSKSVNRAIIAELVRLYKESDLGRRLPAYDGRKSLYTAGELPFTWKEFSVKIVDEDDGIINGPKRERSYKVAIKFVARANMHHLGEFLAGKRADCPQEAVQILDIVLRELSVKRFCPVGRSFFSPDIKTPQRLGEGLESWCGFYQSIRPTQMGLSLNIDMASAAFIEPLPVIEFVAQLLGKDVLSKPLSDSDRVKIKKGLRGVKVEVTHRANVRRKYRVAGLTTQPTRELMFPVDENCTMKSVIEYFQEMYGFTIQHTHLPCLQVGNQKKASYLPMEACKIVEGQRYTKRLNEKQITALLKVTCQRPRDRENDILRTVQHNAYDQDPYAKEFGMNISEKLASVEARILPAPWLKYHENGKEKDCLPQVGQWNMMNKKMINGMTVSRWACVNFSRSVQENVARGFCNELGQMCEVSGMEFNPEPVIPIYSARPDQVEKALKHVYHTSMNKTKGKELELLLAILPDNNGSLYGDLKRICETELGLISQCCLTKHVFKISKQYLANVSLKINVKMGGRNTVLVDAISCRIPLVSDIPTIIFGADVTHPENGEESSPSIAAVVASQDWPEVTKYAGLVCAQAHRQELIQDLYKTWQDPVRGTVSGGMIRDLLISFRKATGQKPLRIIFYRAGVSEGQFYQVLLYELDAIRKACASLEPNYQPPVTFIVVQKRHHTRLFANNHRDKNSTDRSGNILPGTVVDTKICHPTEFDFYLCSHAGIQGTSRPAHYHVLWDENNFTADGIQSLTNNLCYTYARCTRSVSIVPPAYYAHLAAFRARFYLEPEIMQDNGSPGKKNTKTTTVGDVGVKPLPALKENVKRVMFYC

In series [4] the target is HsAGO2+At-loop (human, UniProt Q9UKV8 1-601+Q9XGW1:713-720+609-859, internal_change).

The Kd is a measure of binding affinity in units of concentration.

B1: guide RNA / 2-8 target (mixed)
RNA 1: UGGAGUGUGACAAUGGUGUUU
RNA 2: AAAAAAAAAAAAAACACUCCAAA
With B1, the Kd worked out at 0.086 ± 0.005 nM in series [1], 0.38 ± 0.03 nM in series [2], 1.33 ± 0.14 nM in series [3] and 6.43 ± 0.24 nM in series [4].

B2: guide RNA / 2-21 target (mixed)
RNA 1: UGGAGUGUGACAAUGGUGUUU
RNA 2: AAACACCAUUGUCACACUCCAAA
As for B2, the equilibrium dissociation constant (Kd) came to 0.01 ± 0.001 nM in series [1], 0.095 ± 0.012 nM in series [2], 0.04 ± 0.007 nM in series [3] and 0.005 ± 0.001 nM in series [4].

The record behind these values is publication doi:10.1101/2022.07.20.500788.
